Results on one molecule are retold here after paper PMC9198364 (Molecular Therapy. Methods & Clinical Development, 2022).

As usually defined, the Kd is the concentration at which binding is half-saturated.

Experiment [1] has as its target AAVPHP.eB capsid (recombinant AAVPHP.eB particles) (adeno-associated virus 9 (parental serotype)) (UniProt Q6JC40). The experiment can be described thus: SPR. Background: Surface plasmon resonance follows binding to a sensor surface in real time, without labels.
For experiment [2], the target named is adeno-associated virus (AAV) 9 capsid (recombinant AAV9 particles) (adeno-associated virus 9, UniProt Q6JC40 1-736). Nature of the experiment: SPR.

B1: soluble AAV receptor (AAVR) extracellular fragment containing PKD1-5 (domain or fragment)
chain: RKNRPPIAIVSPQFQEISLPTTSTVIDGSQSTDDDKIVQYHWEELKGPLREEKISEDTAILKLSKLVPGNYTFSLTVVDSDGATNSTTANLTVNK
For B1, the Kd in experiment [1] stood at 274 nM; in experiment [2], 138 nM.
